Assays:
[1] = biological target: recombinant Plasmodium falciparum circumsporozoite protein (CSP) (Plasmodium falciparum) (UniProt P19597); assay: cell-based or functional assay
[2] = biological target: recombinant Plasmodium falciparum circumsporozoite protein (CSP) (Plasmodium falciparum) (UniProt P19597); assay: SPR, recombinant CSP; geometric mean, n=2
[3] = biological target: human FcRn (human) (UniProt P55899); assay: SPR, human FcRn, pH 6.0
Sequence of human FcRn (human) (P55899 24-297 limits assumed, form in doubt, chain 1 of 2): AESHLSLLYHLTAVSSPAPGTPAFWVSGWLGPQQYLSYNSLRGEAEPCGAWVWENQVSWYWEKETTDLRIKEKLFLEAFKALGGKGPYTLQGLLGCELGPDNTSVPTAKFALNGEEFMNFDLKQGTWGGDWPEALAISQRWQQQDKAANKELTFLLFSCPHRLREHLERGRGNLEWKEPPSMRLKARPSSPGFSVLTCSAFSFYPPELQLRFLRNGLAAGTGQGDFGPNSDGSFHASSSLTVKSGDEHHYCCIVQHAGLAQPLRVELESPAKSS
Sequence of human FcRn (human) (chain, as listed by the source limits assumed, form in doubt, chain 2 of 2): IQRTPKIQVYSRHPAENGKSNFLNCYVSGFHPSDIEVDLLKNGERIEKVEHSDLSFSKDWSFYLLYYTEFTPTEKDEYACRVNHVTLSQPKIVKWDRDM

Sequence of recombinant Plasmodium falciparum circumsporozoite protein (CSP) (Plasmodium falciparum) (P19597 21-375 limits assumed): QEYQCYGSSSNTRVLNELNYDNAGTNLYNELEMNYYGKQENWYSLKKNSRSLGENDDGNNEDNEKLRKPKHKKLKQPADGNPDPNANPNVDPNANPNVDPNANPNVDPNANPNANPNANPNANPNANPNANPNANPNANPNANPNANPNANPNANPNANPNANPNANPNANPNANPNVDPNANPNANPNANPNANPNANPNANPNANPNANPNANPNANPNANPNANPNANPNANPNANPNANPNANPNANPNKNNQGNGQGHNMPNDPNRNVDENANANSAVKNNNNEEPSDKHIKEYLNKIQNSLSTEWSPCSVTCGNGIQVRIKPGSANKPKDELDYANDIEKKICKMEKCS

Substance	Geo Mean EC50 (ug/ml), ADNKA, Donor 1 [1] [µg/mL]	Geo Mean EC50 (ug/ml), ADNKA, Donor 2 [1] [µg/mL]	Geo Mean EC50 (ug/ml), ADNKA, Donor 3 [1] [µg/mL]	Geo Mean EC50 (ug/ml), ADNKA, Donor 4 [1] [µg/mL]	Kd [2] [nM]	Kd [3] [nM]
317 DE-LS (antibody)	0.0027	0.0022	0.0276	0.0111	–	–
317 LS (antibody)	0.0567	0.231	0.151	0.0709	–	–
CIS43 LS (antibody)	0.0277	0.143	0.104	0.0643	–	–
L9 (antibody)	–	–	–	–	0.04	174
L9 LS (antibody)	0.038	0.514	0.0887	0.0286	–	–
hIgG1 WT control (antibody)	–	–	–	–	–	102

Reference: patent publication US20250296995A1
